Where “and” joins values, the source holds several entries; their conditions need not be identical. Equal entries are not always repeated.
Assays:
[1] = target: T1, pUL21^V382E-H6 (HSV-1 pUL21 with V382E) (herpes simplex virus 1, UniProt F8RG07 1-535, V382E); test: ITC; CERTL forms in the syringe titrated into pUL21 forms in the cell; 25 °C; 20 mM Tris pH 8.5, 500 mM NaCl, 0.5 mM TCEP; one-site binding model; single titrations; details: both partners purified
T1 construct: tegument protein pUL21 of herpes simplex virus 1, UniProt F8RG07, with V382E; the text also writes H6-pUL21^V382E; also called H6-pUL21^V382E; source: E. coli T7 Express lysY/Iq, purified (Ni-NTA, SEC); not shown: His6, C-terminal, kept
T1 sequence: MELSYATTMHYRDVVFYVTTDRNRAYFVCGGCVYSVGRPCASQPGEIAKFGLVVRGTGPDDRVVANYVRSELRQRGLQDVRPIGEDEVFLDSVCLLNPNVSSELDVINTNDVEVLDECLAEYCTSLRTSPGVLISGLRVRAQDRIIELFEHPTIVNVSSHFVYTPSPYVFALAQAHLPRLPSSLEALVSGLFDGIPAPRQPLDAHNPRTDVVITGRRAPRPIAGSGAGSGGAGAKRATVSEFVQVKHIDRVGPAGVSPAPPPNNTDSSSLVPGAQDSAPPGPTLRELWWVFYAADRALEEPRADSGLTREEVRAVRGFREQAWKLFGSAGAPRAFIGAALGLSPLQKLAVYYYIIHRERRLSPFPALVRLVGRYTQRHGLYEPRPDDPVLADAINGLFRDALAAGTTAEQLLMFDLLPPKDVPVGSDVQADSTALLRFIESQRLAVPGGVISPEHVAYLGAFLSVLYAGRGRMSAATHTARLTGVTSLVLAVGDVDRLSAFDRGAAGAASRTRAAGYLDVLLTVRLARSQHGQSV

[2] = target: T2, H6-pUL21C (C-terminal domain of HSV-1 pUL21, amino acids 275 to 535) (herpes simplex virus 1, UniProt F8RG07 275-535); test: as above; details: both partners purified
T2 construct: C-terminal domain of pUL21 of herpes simplex virus 1, residues 275-535 of UniProt F8RG07; source: E. coli T7 Express lysY/Iq, purified (Ni-NTA, SEC); not shown: MAH6, N-terminal, kept
T2 sequence: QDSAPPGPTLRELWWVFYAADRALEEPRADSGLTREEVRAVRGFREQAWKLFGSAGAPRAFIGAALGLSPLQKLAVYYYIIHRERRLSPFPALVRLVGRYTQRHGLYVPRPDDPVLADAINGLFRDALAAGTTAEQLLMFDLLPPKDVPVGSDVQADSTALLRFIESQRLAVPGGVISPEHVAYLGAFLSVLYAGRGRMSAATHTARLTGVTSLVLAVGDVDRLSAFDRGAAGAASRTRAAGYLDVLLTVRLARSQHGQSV

pUL21-H6 (HSV-1 pUL21) = target: T3, pUL21-H6 (HSV-1 pUL21) (herpes simplex virus 1, UniProt F8RG07 1-535); test: as above; details: both partners purified
T3 construct: tegument protein pUL21 of herpes simplex virus 1, UniProt F8RG07; source: E. coli T7 Express lysY/Iq, purified (Ni-NTA, SEC); not shown: His6, C-terminal, kept
T3 sequence: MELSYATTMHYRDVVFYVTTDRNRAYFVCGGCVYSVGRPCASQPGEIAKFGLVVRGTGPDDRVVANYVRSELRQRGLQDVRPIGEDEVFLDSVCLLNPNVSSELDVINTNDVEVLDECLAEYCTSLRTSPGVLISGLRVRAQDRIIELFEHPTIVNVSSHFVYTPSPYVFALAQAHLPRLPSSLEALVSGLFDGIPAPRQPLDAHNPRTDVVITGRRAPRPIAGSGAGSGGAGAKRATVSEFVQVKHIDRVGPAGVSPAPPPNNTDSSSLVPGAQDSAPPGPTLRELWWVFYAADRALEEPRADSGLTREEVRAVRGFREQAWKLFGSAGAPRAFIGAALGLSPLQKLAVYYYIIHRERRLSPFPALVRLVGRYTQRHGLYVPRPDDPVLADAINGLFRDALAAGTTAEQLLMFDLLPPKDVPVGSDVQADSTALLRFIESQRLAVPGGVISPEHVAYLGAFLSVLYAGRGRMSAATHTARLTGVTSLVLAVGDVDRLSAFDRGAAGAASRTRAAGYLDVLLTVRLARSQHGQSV

StrepII-CERT^P = target: T4, StrepII-CERT^P (UniProt Q9Y5P4-2 1-598, hyperphosphorylated (sites not given)); test: cell-based or functional assay
T4 sequence (looked up): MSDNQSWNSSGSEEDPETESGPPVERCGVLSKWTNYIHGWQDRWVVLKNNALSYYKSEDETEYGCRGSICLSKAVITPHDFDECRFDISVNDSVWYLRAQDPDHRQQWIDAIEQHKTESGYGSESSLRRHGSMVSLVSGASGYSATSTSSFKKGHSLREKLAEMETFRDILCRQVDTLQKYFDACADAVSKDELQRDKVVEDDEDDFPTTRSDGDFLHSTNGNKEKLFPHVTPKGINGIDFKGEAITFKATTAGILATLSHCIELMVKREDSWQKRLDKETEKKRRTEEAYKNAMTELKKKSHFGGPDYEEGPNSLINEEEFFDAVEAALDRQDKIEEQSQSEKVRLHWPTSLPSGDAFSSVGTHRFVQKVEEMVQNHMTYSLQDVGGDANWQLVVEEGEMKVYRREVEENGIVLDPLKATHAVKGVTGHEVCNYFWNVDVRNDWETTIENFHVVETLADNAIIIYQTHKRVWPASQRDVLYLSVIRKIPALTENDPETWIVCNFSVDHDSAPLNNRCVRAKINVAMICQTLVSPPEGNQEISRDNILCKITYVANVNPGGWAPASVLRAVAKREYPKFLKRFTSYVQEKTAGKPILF

B1: H6-miniCERTL (CERTL residues 20-131 plus 351-624) (domain or fragment, human, UniProt Q9Y5P4-1 20-131, looked up)
chain: SGPPVERCGVLSKWTNYIHGWQDRWVVLKNNALSYYKSEDETEYGCRGSICLSKAVITPHDFDECRFDISVNDSVWYLRAQDPDHRQQWIDAIEQHKTESGYGSESSLRRHGTSLPSGDAFSSVGTHRFVQKPYSRSSSMSSIDLVSASDDVHRFSSQVEEMVQNHMTYSLQDVGGDANWQLVVEEGEMKVYRREVEENGIVLDPLKATHAVKGVTGHEVCNYFWNVDVRNDWETTIENFHVVETLADNAIIIYQTHKRVWPASQRDVLYLSVIRKIPALTENDPETWIVCNFSVDHDSAPLNNRCVRAKINVAMICQTLVSPPEGNQEISRDNILCKITYVANVNPGGWAPASVLRAVAKREYPKFLKRFTSYVQEKTAGKPILF
notes: human CERTL, PH domain and start of the middle region, residues 20-131 of Q9Y5P4-1; human CERTL, end of the middle region and STARTL domain, residues 351-624 of Q9Y5P4-1 (middle region residues 132-350 left out); source: E. coli T7 Express lysY/Iq, purified (Ni-NTA, SEC); not shown: MAH6, N-terminal, kept
With B1 the Kd [1] was 8.39 µM and 8.83 µM and 7.04 µM, the “stoichiometry N” value [1] was 1.22 and 1.01 and 1.25 and the Kd [2] was 5.5 µM and 3.15 µM. The “stoichiometry N” value [2] was 0.95 and 1.

B2: StrepII-CERTL^P (hyperphosphorylated human CERTL) (natural protein, UniProt Q9Y5P4-1 1-624, looked up)
chain: MSDNQSWNSSGSEEDPETESGPPVERCGVLSKWTNYIHGWQDRWVVLKNNALSYYKSEDETEYGCRGSICLSKAVITPHDFDECRFDISVNDSVWYLRAQDPDHRQQWIDAIEQHKTESGYGSESSLRRHGSMVSLVSGASGYSATSTSSFKKGHSLREKLAEMETFRDILCRQVDTLQKYFDACADAVSKDELQRDKVVEDDEDDFPTTRSDGDFLHSTNGNKEKLFPHVTPKGINGIDFKGEAITFKATTAGILATLSHCIELMVKREDSWQKRLDKETEKKRRTEEAYKNAMTELKKKSHFGGPDYEEGPNSLINEEEFFDAVEAALDRQDKIEEQSQSEKVRLHWPTSLPSGDAFSSVGTHRFVQKPYSRSSSMSSIDLVSASDDVHRFSSQVEEMVQNHMTYSLQDVGGDANWQLVVEEGEMKVYRREVEENGIVLDPLKATHAVKGVTGHEVCNYFWNVDVRNDWETTIENFHVVETLADNAIIIYQTHKRVWPASQRDVLYLSVIRKIPALTENDPETWIVCNFSVDHDSAPLNNRCVRAKINVAMICQTLVSPPEGNQEISRDNILCKITYVANVNPGGWAPASVLRAVAKREYPKFLKRFTSYVQEKTAGKPILF
modifications: hyperphosphorylated (CERTL^P); sites not given
notes: ceramide transport protein CERT, longer cytoplasmic isoform CERTL (with exon 11), human, UniProt Q9Y5P4-1; not shown: StrepII, N-terminal, kept
B2 was tested, and the “stoichiometry N” value (pUL21-H6 (HSV-1 pUL21)) was 0.76 and 0.72 and 0.74.

B3: StrepII-CERTL^S132A (constitutively hypophosphorylated human CERTL) (natural protein, UniProt Q9Y5P4-1 1-624, looked up)
chain: MSDNQSWNSSGSEEDPETESGPPVERCGVLSKWTNYIHGWQDRWVVLKNNALSYYKSEDETEYGCRGSICLSKAVITPHDFDECRFDISVNDSVWYLRAQDPDHRQQWIDAIEQHKTESGYGSESSLRRHGAMVSLVSGASGYSATSTSSFKKGHSLREKLAEMETFRDILCRQVDTLQKYFDACADAVSKDELQRDKVVEDDEDDFPTTRSDGDFLHSTNGNKEKLFPHVTPKGINGIDFKGEAITFKATTAGILATLSHCIELMVKREDSWQKRLDKETEKKRRTEEAYKNAMTELKKKSHFGGPDYEEGPNSLINEEEFFDAVEAALDRQDKIEEQSQSEKVRLHWPTSLPSGDAFSSVGTHRFVQKPYSRSSSMSSIDLVSASDDVHRFSSQVEEMVQNHMTYSLQDVGGDANWQLVVEEGEMKVYRREVEENGIVLDPLKATHAVKGVTGHEVCNYFWNVDVRNDWETTIENFHVVETLADNAIIIYQTHKRVWPASQRDVLYLSVIRKIPALTENDPETWIVCNFSVDHDSAPLNNRCVRAKINVAMICQTLVSPPEGNQEISRDNILCKITYVANVNPGGWAPASVLRAVAKREYPKFLKRFTSYVQEKTAGKPILF
notes: ceramide transport protein CERT, longer cytoplasmic isoform CERTL, human, UniProt Q9Y5P4-1, with S132A; source: Freestyle 293F cells, stably transfected, doxycycline-induced, purified (StrepTrap, SEC); not shown: StrepII, N-terminal, kept
For B3, the “stoichiometry N” value (pUL21-H6 (HSV-1 pUL21)) was 0.93 and 1.01.

B4: pUL21^V382E-H6 (natural protein)
chain: MELSYATTMHYRDVVFYVTTDRNRAYFVCGGCVYSVGRPCASQPGEIAKFGLVVRGTGPDDRVVANYVRSELRQRGLQDVRPIGEDEVFLDSVCLLNPNVSSELDVINTNDVEVLDECLAEYCTSLRTSPGVLISGLRVRAQDRIIELFEHPTIVNVSSHFVYTPSPYVFALAQAHLPRLPSSLEALVSGLFDGIPAPRQPLDAHNPRTDVVITGRRAPRPIAGSGAGSGGAGAKRATVSEFVQVKHIDRVGPAGVSPAPPPNNTDSSSLVPGAQDSAPPGPTLRELWWVFYAADRALEEPRADSGLTREEVRAVRGFREQAWKLFGSAGAPRAFIGAALGLSPLQKLAVYYYIIHRERRLSPFPALVRLVGRYTQRHGLYEPRPDDPVLADAINGLFRDALAAGTTAEQLLMFDLLPPKDVPVGSDVQADSTALLRFIESQRLAVPGGVISPEHVAYLGAFLSVLYAGRGRMSAATHTARLTGVTSLVLAVGDVDRLSAFDRGAAGAASRTRAAGYLDVLLTVRLARSQHGQSV
In the case of B4, the “EC50 of pUL21^V382E-H6 (62.5 nM to 4 μM) for accelerating GST-PP1-mediated dephosphorylation of 0.5 μM CERT^P in vitro, all proteins purified, 25 nM GST-PP1γ, 30 min at 30 °C” value (StrepII-CERT^P) is reported as 3.33 μM.
